Test results as given in patent US20180155451A1 (published 2018).
Positions count from the first letter of the chain named. Where two headings read alike, the source gives them in different places.

Tests used:
Assay in all cases: SPR (Biacore), antibody captured on chip, FcgR extracellular domain as analyte
[1] = target: T1, FcgRIIb (human, UniProt P31994 43-217)
T1 construct: extracellular domain; Expressed in FreeStyle293 cells and purified; used as analyte in Biacore; also called FcγRIIb; CD32B; not shown: His tag attached to the C terminus
T1 sequence (looked up): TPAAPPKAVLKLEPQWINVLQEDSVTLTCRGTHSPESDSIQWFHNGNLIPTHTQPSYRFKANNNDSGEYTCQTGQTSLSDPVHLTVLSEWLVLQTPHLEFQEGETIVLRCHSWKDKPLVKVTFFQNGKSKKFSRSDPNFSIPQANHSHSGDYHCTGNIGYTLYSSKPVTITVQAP

[2] = target: T2, FcgRIIa R (human, UniProt P12318 34-217)
T2 construct: extracellular domain; also called FcγRIIa R; FcγRIIa type R; not shown: His tag attached to the C terminus
T2 sequence (looked up): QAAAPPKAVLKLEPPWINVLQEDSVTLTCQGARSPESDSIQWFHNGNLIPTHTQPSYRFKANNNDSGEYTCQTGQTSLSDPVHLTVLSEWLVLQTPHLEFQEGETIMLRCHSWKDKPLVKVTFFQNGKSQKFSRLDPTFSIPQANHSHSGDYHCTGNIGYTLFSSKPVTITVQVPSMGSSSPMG

[3] = target: T3, FcgRIIa H (human, UniProt P12318 34-217)
T3 construct: extracellular domain; also called FcγRIIa H; FcγRIIa type H; not shown: His tag attached to the C terminus
T3 sequence (looked up): T2 sequence (looked up) with R134H

[4] = target: T1, FcgRIIb; remark: listed apart in the source
[5] = target: T4, FcgRIIIa V (human, UniProt P08637 17-208)
T4 construct: extracellular domain; also called FcγRIIIa V; not shown: His tag attached to the C terminus
T4 sequence (P08637 17-208 F176V limits assumed): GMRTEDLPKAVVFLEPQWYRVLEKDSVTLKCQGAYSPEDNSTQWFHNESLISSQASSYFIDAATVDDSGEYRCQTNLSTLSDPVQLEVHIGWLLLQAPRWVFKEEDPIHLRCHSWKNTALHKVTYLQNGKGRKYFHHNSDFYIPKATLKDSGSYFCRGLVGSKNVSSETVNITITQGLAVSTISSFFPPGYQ

[6] = target: T5, FcgRIa (human, UniProt P12314 16-292)
T5 construct: extracellular domain; Expressed in FreeStyle293 cells and purified; used as analyte in Biacore; also called FcγRIa; FcγRI; not shown: His tag attached to the C terminus
T5 sequence (P12314 16-292): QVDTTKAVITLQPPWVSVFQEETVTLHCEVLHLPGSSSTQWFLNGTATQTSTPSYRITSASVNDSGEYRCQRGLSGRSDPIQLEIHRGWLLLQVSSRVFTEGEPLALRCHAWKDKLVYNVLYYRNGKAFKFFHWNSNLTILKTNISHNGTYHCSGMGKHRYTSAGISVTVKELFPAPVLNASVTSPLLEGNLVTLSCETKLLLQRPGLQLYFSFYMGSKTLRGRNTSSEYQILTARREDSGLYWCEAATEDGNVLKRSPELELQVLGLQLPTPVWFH

[7] = target: T6, FcgRIIIa F (human, UniProt P08637 17-208)
T6 construct: extracellular domain; also called FcγRIIIa F; not shown: His tag attached to the C terminus
T6 sequence (P08637 17-208): as the sequence (P08637 17-208 F176V limits assumed) above, with V160F counted along it

[8] = target: T2, FcgRIIa R; remark: listed apart in the source
[9] = target: T3, FcgRIIa H; remark: listed apart in the source
[10] = target: T1, FcgRIIb; remark: listed apart in the source
[11] = target: T4, FcgRIIIa V; remark: listed apart in the source
[12] = target: T5, FcgRIa; remark: listed apart in the source
[13] = target: T6, FcgRIIIa F; remark: listed apart in the source
[14] = target: T2, FcgRIIa R; remark: listed apart in the source
[15] = target: T3, FcgRIIa H; remark: listed apart in the source

B1: H240-afucosyl_G1d/L73-k0 (antibody, human IgG1, kappa)
heavy: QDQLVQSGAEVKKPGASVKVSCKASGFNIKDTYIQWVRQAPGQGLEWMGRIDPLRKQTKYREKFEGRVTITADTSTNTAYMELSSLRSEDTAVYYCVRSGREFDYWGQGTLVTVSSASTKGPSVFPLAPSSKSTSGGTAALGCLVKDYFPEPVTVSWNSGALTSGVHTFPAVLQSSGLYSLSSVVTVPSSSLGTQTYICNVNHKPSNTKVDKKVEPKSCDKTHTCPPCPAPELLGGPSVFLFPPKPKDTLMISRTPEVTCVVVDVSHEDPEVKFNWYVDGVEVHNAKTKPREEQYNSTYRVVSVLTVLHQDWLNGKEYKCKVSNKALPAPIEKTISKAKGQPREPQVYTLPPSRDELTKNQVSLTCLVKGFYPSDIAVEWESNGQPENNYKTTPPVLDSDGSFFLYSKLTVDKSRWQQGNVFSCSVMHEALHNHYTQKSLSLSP
light: DIQMTQSPSSLSASVGDRVTITCRASQDIHKYIAWYQQKPGQAPRLLIQYTSTLQPGVPSRFSGSGSGTDYTFTISSLQPEDIATYYCLQYEQLRTFGGGTKVEIKRTVAAPSVFIFPPSDEQLKSGTASVVCLLNNFYPREAKVQWKVDNALQSGNSQESVTEQDSKDSTYSLSSTLTLSKADYEKHKVYACEVTHQGLSSPVTKSFNRGEC
modifications: fucose removed from the sugar chain (afucosylated); amino acid sequence same as H240-G1d
notes: Anti-EREG IgG1 obtained by afucosylating H240-G1d/L73-k0; also called afucosylated antibody
**Q.** How did the Kd [1] turn out when B1 was run?
**A.** 2600 nM

**Q.** And the Kd [2]?
**A.** 490 nM

**Q.** What about the Kd [3] of the same binder?
**A.** 780 nM

**Q.** And the Kd [4]?
**A.** 2600 nM

**Q.** And the Kd [5]?
**A.** 6.9 nM

**Q.** What about the Kd [6] of the same binder?
**A.** 0.43 nM

**Q.** And the Kd [7]?
**A.** 79 nM

**Q.** And the Kd [8]?
**A.** 490 nM

**Q.** And the Kd [9]?
**A.** 780 nM

**Q.** And the Kd [10]?
**A.** 2600 nM

**Q.** And the Kd [11]?
**A.** 6.9 nM

**Q.** What about the Kd [12] of the same binder?
**A.** 0.43 nM

**Q.** What about the Kd [13] of the same binder?
**A.** 79 nM

**Q.** And the Kd [14]?
**A.** 490 nM

**Q.** What about the Kd [15] of the same binder?
**A.** 780 nM
